The source of these data is US20020123068A1, “Water-soluble, fluorescent, & electrophoretically mobile peptidic substrates for enzymatic reactions and methods for their use in high-throughput screening assays” (priority 2001, published 2002).

Where a SMILES comes first, the peptide text is derived from it. Where no end group is shown, it is not given here. Side-chain parts run from the residue outwards. Texas Red = Texas Red: fluorescent dye

Series [1] addresses T1, protein kinase A (PKA) (Bos taurus, UniProt P00517).
T1 construct: purchased Promega (Madison, WI)
As to the kind of experiment: Protein kinase A phosphorylation assay (PepTag assay kit), agarose gel electrophoresis readout. The series is classed as biochemical. The protocol: The fluorescent peptides were assayed with protein kinase A (PKA) using the PepTag assay kit from Promega (Madison, WI). The concentrations of the peptides in the assay were 60 μM, and the concentration of ATP was 1 mM. After completion of the assay the 25 μL reaction mixtures were spiked with 5 μL of 50% glycerol and submitted to gel electrophoresis in a 0.8% horizontal agarose slab in 50 mM TRIS HCl, pH 8.0. The gels were imaged with a fluorescence imager. The results appear in FIG. 1. The Lissamine Kemptide reaction mixtures (− & + kinase) are included as controls. It is clear that both isomers of N-(TXR)LRRASLG [SEQ. ID NO.

Series [2] concerns the target T2, SRC Kinase (Homo sapiens, UniProt P12931). As to the kind of experiment: SRC kinase assay of fluorescent peptidic substrates, agarose gel electrophoresis readout. The series is classed as biochemical. The settings on record: for substrate of SRC kinase (FIG. 4): peptide 20 μM, 10 units SRC kinase, 1 h at room temperature. The protocol: An assay of the fluorescent peptidic substrate was performed in the presence of SRC Kinase. The peptide concentration was 10 μM, and the ATP concentration was 100 μM. The reaction proceeded in a buffer comprising 25 mM sodium (N-[2-hydroxyethyl]piperazine-N′-[2-ethanesulfonate]), 20 mM magnesium chloride, pH 7.4 for 90 min at room temperature, and the reaction mixture was submitted to gel electrophoresis in a 0.8% agarose slab at pH 8.0. Nearly 75% conversion of the substrate to product took place, and the substrate and product migrated in opposite directions. The results appear in FIG. 3.
A kinase assay was performed with each of these peptides as substrates. The concentrations of the Ac-C-[S-(BTR-Jeff)]EEFIYGAFKKKK [SEQ. ID NO. 3] and Ac-C-[S-(BTR-Jeff)]EEFIYGAFRRRR [SEQ. ID NO. 4] were 20 μM, respectively. The ATP concentration in each reaction was 100 μM, and 10 units of SRC kinase were added per reaction. The reactions proceeded at room temperature for 1 h. The reaction mixtures were spiked with 50% glycerol to give a final concentration of 10%. The samples (25 μL) were submitted to gel electrophoresis on a 0.8% agarose slab in 50 mM TRIS HCl, pH 8.0.
The SRC substrate Ac-C-[S-(TXR-Jeff)]EEFIYGAFKKKK [SEQ. ID NO. 5] was prepared and assayed as described by the method in Example 5 with the exceptions that TXR-Jeffamine-BAA was used as the fluorophore and the assay was allowed to proceed overnight. The results of the assay appear in FIG. 5. The anode is to the left and the cathode to the right. N-(TXR)-LRRASLG [SEQ. ID NO. 11] (Texas Red labeled Kemptide) and its phosphorylated derivative were included as mobility standards.

The test system of series [3] is T3, conjugate comprising just the BODIPY630/650 and Kemptide.
T3 sequence: LRRASLG

For series [4], the target named is T2, SRC Kinase. The following applies: screen done by investigators at Selectide; cited from earlier work.
The nature of series [5]: Solubility of peptides and fluorescent peptide conjugates in aqueous buffer. The series is classed as physicochemical.
Series [6] deals with T4, C-[S-(TXR-Jeff)]EEEFIYGAFKKKK
T4 sequence: CEEEFIYGAFKKKK

Take “(BODIPY-PEG)-labeled Kemptide: BODIPY630/650 coupled to Kemptide LRRASLG through a 3,400 molecular weight PEG spacer (not fully specified; also: BODIPY630/650 label, attachment site not given here)”: the “phosphorylation by Protein Kinase A (Example 3, FIG. 2)” value in series [1] is “successfully phosphorylated”.

As to “C-[S-(TXR-Jeff)]EEEFIYGAFKKKK: Texas Red linked through a Jeffamine ED-900 PEG spacer to the cysteine thiol of peptide CEEEFIYGAFKKKK; SRC kinase substrate (C([Jeffamine ED‑900-Texas Red])EEEFIYGAFKKKK)”, in series [2], the “quality/reactivity as substrate for SRC kinase (in words)” value (“quality/reactivity as substrate” below) is given as “good substrate”. Further, the Km in series [2] (fluorescent peptide as substrate for SRC Kinase) stood at 8.5 µM. The “conversion of the substrate to product” value in series [2] (peptide 10 μM, ATP 100 μM, pH 7.4, 90 min at room temperature) is about 75%.

Turning to protein kinase A (PKA), the phosphorylation result in series [3] was “its solubility was so low that Protein Kinase A could not phosphorylate it”.

For FIYGAFK (Test Substrate Sequence), the “active substrate of SRC Kinase in resin-bound peptide library screen” value in series [4] is on record as “active substrate”.

With `CC[C@H](C)[C@H](NC(=O)[C@H](Cc1ccccc1)NC(=O)[C@H](C)NC(=O)[C@H](C)NC(=O)[C@@H](N)CS)C(=O)N[C@@H](Cc1ccc(O)cc1)C(=O)NCC(=O)N[C@@H](C)C(=O)N[C@@H](Cc1ccccc1)C(=O)N[C@@H](CCCCN)C(=O)O` [CAAFIYGAFK] (H-CAAFIYGAFK-OH; N-terminus and C-terminus assumed), the solubility result in series [5] is recorded as “Insolubility”.

In the case of “Ac-C-[S-(BTR-Jeff)]EEFIYGAFRRRR: BODIPY TR-Jeffamine ED-900 conjugate of N-acetylated peptide Ac-CEEFIYGAFRRRR (Ac-C([Jeffamine ED‑900-BODIPY TR])EEFIYGAFRRRR)”, the “quality/reactivity as substrate” value in series [2] is “did not result in a sufficiently reactive substrate”. Moreover, in series [2] (ATP 100 μM), the “substrate of SRC kinase (FIG. 4)” value is given as “is not”. In addition, in series [5], the solubility result is given as “much lower”.

Consider “Ac-C-[S-(TXR-Jeff)]EEFIYGAFKKKK: Texas Red-Jeffamine ED-900 conjugate of N-acetylated peptide Ac-CEEFIYGAFKKKK (Example 6) (Ac-C([Jeffamine ED‑900-Texas Red])EEFIYGAFKKKK)”, for which the “quality/reactivity as substrate” value in series [2] is listed as “good reactivity”.

Regarding “conjugate comprising just the BODIPY630/650 and Kemptide: BODIPY630/650 coupled to Kemptide LRRASLG without PEG spacer (also: BODIPY630/650 coupled without spacer, site not given here) [reference compound]”, the “phosphorylation by Protein Kinase A (Example 3, FIG. 2)” value in series [1] is recorded as “could not phosphorylate”. Besides, in series [5], the solubility result was “so low”.

With “Ac-C-[S-(BTR-Jeff)]EEFIYGAFKKKK: BODIPY TR-Jeffamine ED-900 conjugate of N-acetylated peptide Ac-CEEFIYGAFKKKK (Ac-C([Jeffamine ED‑900-BODIPY TR])EEFIYGAFKKKK)”, in series [2] (ATP 100 μM), the “substrate of SRC kinase (FIG. 4)” value was “is a substrate of SRC kinase”.

Turning to “N-(TXR)LRRASLG: Texas Red-X labeled Kemptide prepared for comparison (Example 1) ({Texas Red‑X}-LRRASLG)”, in series [1] (peptide 60 μM, ATP 1 mM), the “substrate for PKA (FIG. 1)” value is recorded as “substrates for PKA”.

As to SRC kinase, in series [6], the “Km (kinase assay)” value is “Km=8.5 µM” and the “conversion of the substrate to product (kinase assay, agarose gel electrophoresis)” value is “Nearly 75% conversion of the substrate to product took place”.

What is called Km is the substrate concentration at which the rate is half of its maximum.
